{
  "source": "the supplement of paper PMC10567573",
  "parents": {"B1": {"name": "LOXL2 (parent)", "chain": "RLLRFSSQIHNNGQSDFRPKNGRH"}},
  "data": [
    {"variants_of": "B1", "assay": "protein stability index of a GFP-peptide fusion (GPS, HEK-293T) (PSI 1-6); higher = more stable", "details": "c terminus: a fixed tail appended", "values": [
      {"variant": "RLLRGSSQIHNNGQSDFRPKNGRH", "protein stability index": 4.21},
      {"variant": "RLLRYSSQIHNNGQSDFRPKNGRH", "protein stability index": 2.96},
      {"variant": "RLLRLSSQIHNNGQSDFRPKNGRH", "protein stability index": 2.54},
      {"variant": "RLLRESSQIHNNGQSDFRPKNGRH", "protein stability index": 3.94},
      {"variant": "RLLRKSSQIHNNGQSDFRPKNGRH", "protein stability index": 3.29},
      {"variant": "RLLRPSSQIHNNGQSDFRPKNGRH", "protein stability index": 3.71},
      {"variant": "RLLRDSSQIHNNGQSDFRPKNGRH", "protein stability index": 3.84},
      {"variant": "RLLRISSQIHNNGQSDFRPKNGRH", "protein stability index": 2.72},
      {"variant": "RLLRHSSQIHNNGQSDFRPKNGRH", "protein stability index": 3.95},
      {"variant": "RLLRWSSQIHNNGQSDFRPKNGRH", "protein stability index": 2.15},
      {"variant": "RLLRQSSQIHNNGQSDFRPKNGRH", "protein stability index": 3.6},
      {"variant": "RLLRVSSQIHNNGQSDFRPKNGRH", "protein stability index": 3.74},
      {"variant": "RLLRTSSQIHNNGQSDFRPKNGRH", "protein stability index": 3.99},
      {"variant": "RLLRNSSQIHNNGQSDFRPKNGRH", "protein stability index": 3.92},
      {"variant": "RLLRSSSQIHNNGQSDFRPKNGRH", "protein stability index": 3.81},
      {"variant": "RLLRFSSKIHNNGQSDFRPKNGRH", "protein stability index": 2.14},
      {"variant": "RLLRFSSPIHNNGQSDFRPKNGRH", "protein stability index": 3.54},
      {"variant": "RLLRFSSNIHNNGQSDFRPKNGRH", "protein stability index": 2.95},
      {"variant": "RLLRFSSIIHNNGQSDFRPKNGRH", "protein stability index": 2.23},
      {"variant": "RLLRFSSMIHNNGQSDFRPKNGRH", "protein stability index": 1.95},
      {"variant": "RLLRFSSFIHNNGQSDFRPKNGRH", "protein stability index": 2.07},
      {"variant": "RLLRFSSWIHNNGQSDFRPKNGRH", "protein stability index": 1.77},
      {"variant": "RLLRFSSHIHNNGQSDFRPKNGRH", "protein stability index": 2.5},
      {"variant": "RLLRFSSEIHNNGQSDFRPKNGRH", "protein stability index": 3.17},
      {"variant": "RLLRFSSRIHNNGQSDFRPKNGRH", "protein stability index": 2.91},
      {"variant": "RLLRFSSTIHNNGQSDFRPKNGRH", "protein stability index": 2.67},
      {"variant": "RLLRFSSLIHNNGQSDFRPKNGRH", "protein stability index": 2.29},
      {"variant": "RLLRFSSSIHNNGQSDFRPKNGRH", "protein stability index": 2.73},
      {"variant": "RLLRFSSCIHNNGQSDFRPKNGRH", "protein stability index": 2.21},
      {"variant": "RLLRFSSYIHNNGQSDFRPKNGRH", "protein stability index": 2.05},
      {"variant": "RLLRFSSVIHNNGQSDFRPKNGRH", "protein stability index": 2.95},
      {"variant": "RLLRFSSGIHNNGQSDFRPKNGRH", "protein stability index": 2.87},
      {"variant": "RLLRFSSAIHNNGQSDFRPKNGRH", "protein stability index": 2.94},
      {"variant": "RLLRFSSDIHNNGQSDFRPKNGRH", "protein stability index": 3.81},
      {"variant": "RLARFSSQIHNNGQSDFRPKNGRH", "protein stability index": 3.59},
      {"variant": "RLYRFSSQIHNNGQSDFRPKNGRH", "protein stability index": 3.44},
      {"variant": "RLDRFSSQIHNNGQSDFRPKNGRH", "protein stability index": 3.98},
      {"variant": "RLRRFSSQIHNNGQSDFRPKNGRH", "protein stability index": 3.81},
      {"variant": "RLWRFSSQIHNNGQSDFRPKNGRH", "protein stability index": 2.64},
      {"variant": "RLNRFSSQIHNNGQSDFRPKNGRH", "protein stability index": 3.98},
      {"variant": "RLCRFSSQIHNNGQSDFRPKNGRH", "protein stability index": 2.88},
      {"variant": "RLGRFSSQIHNNGQSDFRPKNGRH", "protein stability index": 3.63},
      {"variant": "RLTRFSSQIHNNGQSDFRPKNGRH", "protein stability index": 3.95},
      {"variant": "RLQRFSSQIHNNGQSDFRPKNGRH", "protein stability index": 3.99},
      {"variant": "RLVRFSSQIHNNGQSDFRPKNGRH", "protein stability index": 3.44},
      {"variant": "RLMRFSSQIHNNGQSDFRPKNGRH", "protein stability index": 3.37},
      {"variant": "RLHRFSSQIHNNGQSDFRPKNGRH", "protein stability index": 3.79},
      {"variant": "RLIRFSSQIHNNGQSDFRPKNGRH", "protein stability index": 3.14},
      {"variant": "RLKRFSSQIHNNGQSDFRPKNGRH", "protein stability index": 3.84},
      {"variant": "RLERFSSQIHNNGQSDFRPKNGRH", "protein stability index": 4.34},
      {"variant": "RLPRFSSQIHNNGQSDFRPKNGRH", "protein stability index": 3.91},
      {"variant": "RLSRFSSQIHNNGQSDFRPKNGRH", "protein stability index": 3.77},
      {"variant": "RLFRFSSQIHNNGQSDFRPKNGRH", "protein stability index": 3.05},
      {"variant": "RLLRFSSQPHNNGQSDFRPKNGRH", "protein stability index": 3.44},
      {"variant": "RLLRFSSQHHNNGQSDFRPKNGRH", "protein stability index": 3.26},
      {"variant": "RLLRFSSQFHNNGQSDFRPKNGRH", "protein stability index": 2.32},
      {"variant": "RLLRFSSQAHNNGQSDFRPKNGRH", "protein stability index": 2.81},
      {"variant": "RLLRFSSQYHNNGQSDFRPKNGRH", "protein stability index": 2.4},
      {"variant": "RLLRFSSQQHNNGQSDFRPKNGRH", "protein stability index": 3.14},
      {"variant": "RLLRFSSQKHNNGQSDFRPKNGRH", "protein stability index": 2.31},
      {"variant": "RLLRFSSQRHNNGQSDFRPKNGRH", "protein stability index": 3.24},
      {"variant": "RLLRFSSQVHNNGQSDFRPKNGRH", "protein stability index": 2.99},
      {"variant": "RLLRFSSQTHNNGQSDFRPKNGRH", "protein stability index": 3.14},
      {"variant": "RLLRFSSQLHNNGQSDFRPKNGRH", "protein stability index": 2.12},
      {"variant": "RLLRFSSQMHNNGQSDFRPKNGRH", "protein stability index": 3.07},
      {"variant": "RLLRFSSQCHNNGQSDFRPKNGRH", "protein stability index": 3.11},
      {"variant": "RLLRFSSQGHNNGQSDFRPKNGRH", "protein stability index": 3.48},
      {"variant": "RLLRFSSQNHNNGQSDFRPKNGRH", "protein stability index": 3.19},
      {"variant": "RLLRFSSQDHNNGQSDFRPKNGRH", "protein stability index": 3.5},
      {"variant": "RLLRFSSQEHNNGQSDFRPKNGRH", "protein stability index": 3.93},
      {"variant": "RLLRFSSQWHNNGQSDFRPKNGRH", "protein stability index": 2.74},
      {"variant": "RLLRFSSQSHNNGQSDFRPKNGRH", "protein stability index": 3.04},
      {"variant": "RLLKFSSQIHNNGQSDFRPKNGRH", "protein stability index": 2.27},
      {"variant": "RLLCFSSQIHNNGQSDFRPKNGRH", "protein stability index": 2.87},
      {"variant": "RLLNFSSQIHNNGQSDFRPKNGRH", "protein stability index": 3.35},
      {"variant": "RLLWFSSQIHNNGQSDFRPKNGRH", "protein stability index": 2.15},
      {"variant": "RLLMFSSQIHNNGQSDFRPKNGRH", "protein stability index": 2.81},
      {"variant": "RLLYFSSQIHNNGQSDFRPKNGRH", "protein stability index": 2.66},
      {"variant": "RLLHFSSQIHNNGQSDFRPKNGRH", "protein stability index": 2.74},
      {"variant": "RLLTFSSQIHNNGQSDFRPKNGRH", "protein stability index": 3.09},
      {"variant": "RLLGFSSQIHNNGQSDFRPKNGRH", "protein stability index": 3.51},
      {"variant": "RLLPFSSQIHNNGQSDFRPKNGRH", "protein stability index": 3.86},
      {"variant": "RLLQFSSQIHNNGQSDFRPKNGRH", "protein stability index": 2.57},
      {"variant": "RLLFFSSQIHNNGQSDFRPKNGRH", "protein stability index": 2.32},
      {"variant": "RLLSFSSQIHNNGQSDFRPKNGRH", "protein stability index": 2.79},
      {"variant": "RLLIFSSQIHNNGQSDFRPKNGRH", "protein stability index": 2.48},
      {"variant": "RLLAFSSQIHNNGQSDFRPKNGRH", "protein stability index": 2.87},
      {"variant": "RLLLFSSQIHNNGQSDFRPKNGRH", "protein stability index": 2.36},
      {"variant": "RLLVFSSQIHNNGQSDFRPKNGRH", "protein stability index": 2.62},
      {"variant": "RLLDFSSQIHNNGQSDFRPKNGRH", "protein stability index": 3.16},
      {"variant": "RLLEFSSQIHNNGQSDFRPKNGRH", "protein stability index": 2.87},
      {"variant": "RLLRFSSQIHNDGQSDFRPKNGRH", "protein stability index": 3.69},
      {"variant": "RLLRFSSQIHNAGQSDFRPKNGRH", "protein stability index": 2.89},
      {"variant": "RLLRFSSQIHNCGQSDFRPKNGRH", "protein stability index": 2.36}
    ]}
  ]
}
